These results are taken from patent publication US20260258158A1 (Janssen / Centocor, published 2026).

In this assay the target is T1, Biotinylated Human CD3 epsilon&CD3 delta Heterodimer Protein, His, Avitag&Tag Free (AcroBiosystems) (human, UniProt P07766 23-126; P04234 22-105).
T1 construct: also called cluster of differentiation 3 (CD3); soluble CD3 antigen
The assay can be described thus: BLI, biotinylated CD3 epsilon/delta on the tip, antibody as analyte (FIG. 24C). In general terms: BLI is a label-free optical method that tracks binding on a fibre tip over time.

T1 sequence (P07766 23-126, stated change not applied, chain 1 of 2): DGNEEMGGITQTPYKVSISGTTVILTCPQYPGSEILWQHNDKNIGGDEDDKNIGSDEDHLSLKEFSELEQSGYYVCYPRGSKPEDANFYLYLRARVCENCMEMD
T1 sequence (P04234 22-105, stated change not applied, chain 2 of 2): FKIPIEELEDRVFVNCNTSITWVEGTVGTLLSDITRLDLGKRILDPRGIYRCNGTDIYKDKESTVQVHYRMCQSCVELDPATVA
Excerpt: In the BLI assay for CD3, due to nonspecific binding from the soluble CD3 antigen (Biotinylated Human CD3 epsilon&CD3 delta Heterodimer Protein, His, Avitag™&Tag Free from AcroBiosystems), the assay was reversed, i.e., immobilizing the antigen to the tip and using the bispecific antibodies as the analyte.

B1: HLPPB423 (bispecific antibody, human IgG1, kappa)
heavy 1: not shown
light 1: not shown
heavy 2: EVQLVESGGGLVQPGGSLRLSCAASGYSFTGYTMNWVRQAPGKGLEWVALINPYKGVSTYNQKFKDRFTISVDKSKNTAYLQMNSLRAEDTAVYYCARSGYYGDSDWYFDVWGQGTLVTVSSASTKGPSVFPLAPSSKSTSGGTAALGCLVKDYFPEPVTVSWNSGALTSGVHTFPAVLQSSGLYSLSSVVTVPSSSLGTQTYICNVNHKPSNTKVDKKVEPKSCDKTHTCPPCPAPELLGGPSVFLFPPKPKDTLMISRTPEVTCVVVDVSHEDPEVKFNWYVDGVEVHNAKTKPREEQYNSTYRVVSVLTVLHQDWLNGKEYKCKVSNKALPAPIEKTISKAKGQPREPQVYTLPPSREEMTKNQVSLSCAVKGFYPSDIAVEWESNGQPENNYKTTPPVLDSDGSFFLVSKLTVDKSRWQQGNVFSCSVMHEALHNRFTQKSLSLSPGK
light 2: not shown
B1: the binding result is on record as “binds”.
